Literature values as cited in publication PMC9412859 (World Journal of Diabetes, 2022).

Conditions: rats, oral

Substance	time of maximum plasma concentration (enteric-coated capsule containing pH responsive NPs) [h]	plasma exenatide level versus subcutaneous exenatide solution (functionalised NPs)
Exendin-4: GLP1-RA, here released from enteric-coated capsule containing pH responsive NPs	5	–
exenatide: GLP1-RA, here delivered orally in functionalised nanoparticles	–	not significantly different
